Experimental data from patent US20030175819A1 (BURNHAM INSTITUTE, published 2003).
*: point of attachment. RhodamineB = CCN(CC)c1ccc2c(-c3ccccc3C(=O)*)c3ccc(=[N+](CC)CC)cc-3oc2c1; Ahx = NCCCCCC(=O)O

B1: rhodamine-conjugated synthetic purified Humanin peptide (peptide)
peptide: {RhodamineB-Ahx}-MAPRGFSCLLLLTSEIDLPVKRRA-NH2
notes: also called rhodamine-HN; rhodamine-conjugated HN peptide
B2: myc-tagged Bak (from pcDNA3-myc) (other, UniProt Q16611 1-211, looked up, not shown: small tags and cut ends)
chain: MASGQGPGPPRQECGEPALPSASEEQVAQDTEEVFRSYVFYRHQQEQEAEGVAAPADPEMVTLPLQPSSTMGQVGRQLAIIGDDINRRYDSEFQTMLQHLQPTAENAYEYFTKIATSLFESGINWGRVVALLGFGYRLALHVYQHGLTGFLGQVTRFVVDFMLHHCIARWIAQRGGWVAALNLGNGPILNVLVVLGVVLLGQFVVRRFFKS
B3: myc-tagged Bcl-B (from pcDNA3-myc) (other, UniProt Q9HD36 1-204, looked up, not shown: small tags and cut ends)
chain: MVDQLRERTTMADPLRERTELLLADYLGYCAREPGTPEPAPSTPEAAVLRSAAARLRQIHRSFFSAYLGYPGNRFELVALMADSVLSDSPGPTWGRVVTLVTFAGTLLERGPLVTARWKKWGFQPRLKEQEGDVARDCQRLVALLSSRLMGQHRAWLQAQGGWDGFCHFFRTPFPLAFWRKQLVQAFLSCLLTTAFIYLWTRLL
B4: myc-tagged Bok (from pcDNA3-myc) (other, UniProt Q9UMX3 1-212, looked up, not shown: small tags and cut ends)
chain: MEVLRRSSVFAAEIMDAFDRSPTDKELVAQAKALGREYVHARLLRAGLSWSAPERAAPVPGRLAEVCAVLLRLGDELEMIRPSVYRNVARQLHISLQSEPVVTDAFLAVAGHIFSAGITWGKVVSLYAVAAGLAVDCVRQAQPAMVHALVDCLGEFVRKTLATWLRRRGGWTDVLKCVVSTDPGLRSHWLVAALCSFGRFLKAAFFVLLPER

What was measured:
[1] = biological target: T1, purified recombinant full-length Bax protein (from E. coli BL21 harboring pTYB1-Bax) (human, UniProt Q07812 1-192); test: fluorescence polarization assay, various concentrations of purified recombinant Bax with 40 nM rhodamine-conjugated Humanin peptide
T1 construct: also called recombinant Bax
T1 sequence (Q07812 whole entry): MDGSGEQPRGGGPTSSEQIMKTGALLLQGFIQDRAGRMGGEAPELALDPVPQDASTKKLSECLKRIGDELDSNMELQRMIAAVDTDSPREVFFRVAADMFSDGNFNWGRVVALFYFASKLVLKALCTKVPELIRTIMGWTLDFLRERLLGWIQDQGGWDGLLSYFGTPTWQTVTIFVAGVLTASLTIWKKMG
Procedure: (§1) In this example, the in vitro binding assay is a fluorescence polarization assay (FPA). For this experiment, full-length Bax protein was produced in bacteria and purified. […] The extent of peptide binding was then monitored by measuring polarization of monochromatic light passed through the sample, where peptide binding to the bulkier protein slows the rate of peptide tumbling in solution, enhancing the polarization effect.
(§2) Fluorescence Polarization Assays were performed as follows. […] Fluorescence polarization was measured using an AnalystTM AD Assay Detection System (LJL Biosystem, Sunnyvale, Calif.).

[2] = biological target: Recombinant Bcl-XL protein (UniProt Q07817 1-211); test: fluorescence polarization assay
Sequence of Recombinant Bcl-XL protein (Q07817 1-211): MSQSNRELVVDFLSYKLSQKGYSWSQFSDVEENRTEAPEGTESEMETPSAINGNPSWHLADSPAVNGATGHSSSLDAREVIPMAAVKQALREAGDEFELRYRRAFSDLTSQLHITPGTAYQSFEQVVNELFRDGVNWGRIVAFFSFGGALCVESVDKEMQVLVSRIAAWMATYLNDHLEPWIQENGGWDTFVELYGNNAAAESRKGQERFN
Procedure: as §1, §2

[3] = biological target: T2, GFP-HN (Green Fluorescent Protein fused to wild-type, full-length Humanin, cytosolic / nuclear-encoded form) (human, UniProt P42212 1-238 = GFP); test: co-immunoprecipitation from HEK293T cells (anti-GFP IP, anti-myc blot)
T2 construct: Humanin cDNA in the XhoI/HindIII sites of GFP-C1 (pEGFP-C1), so GFP is N-terminal; also called GFP-HN(N); GFP-Humanin

Row | Binder | Kd [1] [nM] | binding result [2] | binding result [3]
1 | B1 | ~2 | no binding | 
2 | B2 |  |  | no binding
3 | B3 |  |  | no binding
4 | B4 |  |  | no binding
